We go through 12 molecules from patent US20020142964A1 (published 2002).

In assay [1] the target is T1, human G-CSF receptor (human, UniProt Q99062 25-836).
T1 sequence (looked up): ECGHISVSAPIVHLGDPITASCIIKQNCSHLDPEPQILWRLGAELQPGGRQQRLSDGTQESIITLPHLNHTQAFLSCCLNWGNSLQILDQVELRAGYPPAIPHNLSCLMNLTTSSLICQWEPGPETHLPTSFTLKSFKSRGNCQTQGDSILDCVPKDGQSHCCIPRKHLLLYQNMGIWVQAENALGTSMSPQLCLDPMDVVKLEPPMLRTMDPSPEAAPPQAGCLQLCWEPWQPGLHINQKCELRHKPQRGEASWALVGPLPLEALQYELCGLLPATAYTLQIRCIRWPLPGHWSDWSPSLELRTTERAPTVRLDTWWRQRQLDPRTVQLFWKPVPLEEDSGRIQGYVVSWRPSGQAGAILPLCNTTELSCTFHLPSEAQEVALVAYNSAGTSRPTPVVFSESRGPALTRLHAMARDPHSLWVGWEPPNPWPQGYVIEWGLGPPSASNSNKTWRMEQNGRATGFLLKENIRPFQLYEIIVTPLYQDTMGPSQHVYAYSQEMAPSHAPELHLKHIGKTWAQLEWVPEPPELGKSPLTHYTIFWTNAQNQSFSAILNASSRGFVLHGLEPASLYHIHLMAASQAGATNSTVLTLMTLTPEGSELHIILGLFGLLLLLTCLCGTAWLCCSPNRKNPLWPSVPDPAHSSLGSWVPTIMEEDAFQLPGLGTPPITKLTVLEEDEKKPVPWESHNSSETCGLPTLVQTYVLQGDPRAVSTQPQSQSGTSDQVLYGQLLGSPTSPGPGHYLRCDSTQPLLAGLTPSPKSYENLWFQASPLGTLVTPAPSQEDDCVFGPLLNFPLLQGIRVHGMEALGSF
Put plainly: cell-based or functional assay.

In assay [2] the target is T1, human G-CSF receptor. The experiment in a line: cell-based or functional assay. The source holds these as a separate data set.

B1: Single-chain G-CSF dimer (K16R K34R K40R)copy 1,2 (ligand)
chain: TPLGPASSLPQSFLLRCLEQVRKIQGDGAALQERLCATYRLCHPEELVLLGHSLGIPWAPLSSCPSQALQLAGCLSQLHSGLFLYQGLLQALEGISPELGPTLDTLQLDVADFATTIWQQMEELGMAPALQPTQGAMPAFASAFQRRAGGVLVASHLQSFLEVSYRVLRHLAQPTPLGPASSLPQSFLLRCLEQVRKIQGDGAALQERLCATYRLCHPEELVLLGHSLGIPWAPLSSCPSQALQLAGCLSQLHSGLFLYQGLLQALEGISPELGPTLDTLQLDVADFATTIWQQMEELGMAPALQPTQGAMPAFASAFQRRAGGVLVASHLQSFLEVSYRVLRHLAQP
Consider B1, for which the “Specific activity (% of Neupogen®), from EC50 in luciferase reporter assay” value (from here on “Specific activity (% of Neupogen®)”) in the assay with human G-CSF receptor [1] is 300 % of Neupogen®.

B2: Single-chain G-CSF dimer (K16R K34R K40R)copy 1,2 PEG5000 (ligand)
chain: TPLGPASSLPQSFLLRCLEQVRKIQGDGAALQERLCATYRLCHPEELVLLGHSLGIPWAPLSSCPSQALQLAGCLSQLHSGLFLYQGLLQALEGISPELGPTLDTLQLDVADFATTIWQQMEELGMAPALQPTQGAMPAFASAFQRRAGGVLVASHLQSFLEVSYRVLRHLAQPTPLGPASSLPQSFLLRCLEQVRKIQGDGAALQERLCATYRLCHPEELVLLGHSLGIPWAPLSSCPSQALQLAGCLSQLHSGLFLYQGLLQALEGISPELGPTLDTLQLDVADFATTIWQQMEELGMAPALQPTQGAMPAFASAFQRRAGGVLVASHLQSFLEVSYRVLRHLAQP
modifications: SPA-PEG 5000 covalently linked to the available PEGylation sites; number and positions not stated
Regarding B2, the “Specific activity (% of Neupogen®)” value with human G-CSF receptor [1] is 10 % of Neupogen®.

B3: Single-chain G-CSF dimer (K16R K34R)copy 1,2 PEG5000 (ligand)
chain: TPLGPASSLPQSFLLRCLEQVRKIQGDGAALQERLCATYKLCHPEELVLLGHSLGIPWAPLSSCPSQALQLAGCLSQLHSGLFLYQGLLQALEGISPELGPTLDTLQLDVADFATTIWQQMEELGMAPALQPTQGAMPAFASAFQRRAGGVLVASHLQSFLEVSYRVLRHLAQPTPLGPASSLPQSFLLRCLEQVRKIQGDGAALQERLCATYKLCHPEELVLLGHSLGIPWAPLSSCPSQALQLAGCLSQLHSGLFLYQGLLQALEGISPELGPTLDTLQLDVADFATTIWQQMEELGMAPALQPTQGAMPAFASAFQRRAGGVLVASHLQSFLEVSYRVLRHLAQP
modifications: SPA-PEG 5000 covalently linked to the available PEGylation sites; number and positions not stated
On to B3, for which the “Specific activity (% of Neupogen®)” value with human G-CSF receptor [1] is 19 % of Neupogen®.

B4: Single-chain G-CSF dimer (K16R K34R)copy 1,2 (ligand)
chain: TPLGPASSLPQSFLLRCLEQVRKIQGDGAALQERLCATYKLCHPEELVLLGHSLGIPWAPLSSCPSQALQLAGCLSQLHSGLFLYQGLLQALEGISPELGPTLDTLQLDVADFATTIWQQMEELGMAPALQPTQGAMPAFASAFQRRAGGVLVASHLQSFLEVSYRVLRHLAQPTPLGPASSLPQSFLLRCLEQVRKIQGDGAALQERLCATYKLCHPEELVLLGHSLGIPWAPLSSCPSQALQLAGCLSQLHSGLFLYQGLLQALEGISPELGPTLDTLQLDVADFATTIWQQMEELGMAPALQPTQGAMPAFASAFQRRAGGVLVASHLQSFLEVSYRVLRHLAQP
As for B4, the “Specific activity (% of Neupogen®)” value with human G-CSF receptor [1] was 329 % of Neupogen®.

B5: Single-chain G-CSF dimer (K16R)copy 1,2 (ligand)
chain: TPLGPASSLPQSFLLRCLEQVRKIQGDGAALQEKLCATYKLCHPEELVLLGHSLGIPWAPLSSCPSQALQLAGCLSQLHSGLFLYQGLLQALEGISPELGPTLDTLQLDVADFATTIWQQMEELGMAPALQPTQGAMPAFASAFQRRAGGVLVASHLQSFLEVSYRVLRHLAQPTPLGPASSLPQSFLLRCLEQVRKIQGDGAALQEKLCATYKLCHPEELVLLGHSLGIPWAPLSSCPSQALQLAGCLSQLHSGLFLYQGLLQALEGISPELGPTLDTLQLDVADFATTIWQQMEELGMAPALQPTQGAMPAFASAFQRRAGGVLVASHLQSFLEVSYRVLRHLAQP
Take B5: the “Specific activity (% of Neupogen®)” value with human G-CSF receptor [1] is 135 % of Neupogen®.

B6: Single-chain G-CSF dimer PEG12000 (ligand)
chain: TPLGPASSLPQSFLLKCLEQVRKIQGDGAALQEKLCATYKLCHPEELVLLGHSLGIPWAPLSSCPSQALQLAGCLSQLHSGLFLYQGLLQALEGISPELGPTLDTLQLDVADFATTIWQQMEELGMAPALQPTQGAMPAFASAFQRRAGGVLVASHLQSFLEVSYRVLRHLAQPTPLGPASSLPQSFLLKCLEQVRKIQGDGAALQEKLCATYKLCHPEELVLLGHSLGIPWAPLSSCPSQALQLAGCLSQLHSGLFLYQGLLQALEGISPELGPTLDTLQLDVADFATTIWQQMEELGMAPALQPTQGAMPAFASAFQRRAGGVLVASHLQSFLEVSYRVLRHLAQP
modifications: SPA-PEG 12000 covalently linked to the available PEGylation sites; number and positions not stated
For B6, in the assay with human G-CSF receptor [1], the “Specific activity (% of Neupogen®)” value was 62 % of Neupogen®.

B7: Single-chain G-CSF dimer (K16R K34R K40R)copy 1,2 PEG12000 (ligand)
chain: TPLGPASSLPQSFLLRCLEQVRKIQGDGAALQERLCATYRLCHPEELVLLGHSLGIPWAPLSSCPSQALQLAGCLSQLHSGLFLYQGLLQALEGISPELGPTLDTLQLDVADFATTIWQQMEELGMAPALQPTQGAMPAFASAFQRRAGGVLVASHLQSFLEVSYRVLRHLAQPTPLGPASSLPQSFLLRCLEQVRKIQGDGAALQERLCATYRLCHPEELVLLGHSLGIPWAPLSSCPSQALQLAGCLSQLHSGLFLYQGLLQALEGISPELGPTLDTLQLDVADFATTIWQQMEELGMAPALQPTQGAMPAFASAFQRRAGGVLVASHLQSFLEVSYRVLRHLAQP
modifications: SPA-PEG 12000 covalently linked to the available PEGylation sites; number and positions not stated
Take B7: the “Specific activity (% of Neupogen®)” value with human G-CSF receptor [1] is 10 % of Neupogen®.

B8: Single-chain G-CSF dimer PEG20000 (ligand)
chain: TPLGPASSLPQSFLLKCLEQVRKIQGDGAALQEKLCATYKLCHPEELVLLGHSLGIPWAPLSSCPSQALQLAGCLSQLHSGLFLYQGLLQALEGISPELGPTLDTLQLDVADFATTIWQQMEELGMAPALQPTQGAMPAFASAFQRRAGGVLVASHLQSFLEVSYRVLRHLAQPTPLGPASSLPQSFLLKCLEQVRKIQGDGAALQEKLCATYKLCHPEELVLLGHSLGIPWAPLSSCPSQALQLAGCLSQLHSGLFLYQGLLQALEGISPELGPTLDTLQLDVADFATTIWQQMEELGMAPALQPTQGAMPAFASAFQRRAGGVLVASHLQSFLEVSYRVLRHLAQP
modifications: SPA-PEG 20000 covalently linked to the available PEGylation sites; number and positions not stated
B8: the “Specific activity (% of Neupogen®)” value with human G-CSF receptor [1] was 25 % of Neupogen®.

B9: Single-chain G-CSF dimer PEG5000 (ligand)
chain: TPLGPASSLPQSFLLKCLEQVRKIQGDGAALQEKLCATYKLCHPEELVLLGHSLGIPWAPLSSCPSQALQLAGCLSQLHSGLFLYQGLLQALEGISPELGPTLDTLQLDVADFATTIWQQMEELGMAPALQPTQGAMPAFASAFQRRAGGVLVASHLQSFLEVSYRVLRHLAQPTPLGPASSLPQSFLLKCLEQVRKIQGDGAALQEKLCATYKLCHPEELVLLGHSLGIPWAPLSSCPSQALQLAGCLSQLHSGLFLYQGLLQALEGISPELGPTLDTLQLDVADFATTIWQQMEELGMAPALQPTQGAMPAFASAFQRRAGGVLVASHLQSFLEVSYRVLRHLAQP
modifications: SPA-PEG 5000 covalently linked to the available PEGylation sites; number and positions not stated
On to B9, for which the “Specific activity (% of Neupogen®)” value with human G-CSF receptor [1] was 120 % of Neupogen®.

B10: Single-chain G-CSF dimer (K16R K34R)copy 1,2 PEG12000 (ligand)
chain: TPLGPASSLPQSFLLRCLEQVRKIQGDGAALQERLCATYKLCHPEELVLLGHSLGIPWAPLSSCPSQALQLAGCLSQLHSGLFLYQGLLQALEGISPELGPTLDTLQLDVADFATTIWQQMEELGMAPALQPTQGAMPAFASAFQRRAGGVLVASHLQSFLEVSYRVLRHLAQPTPLGPASSLPQSFLLRCLEQVRKIQGDGAALQERLCATYKLCHPEELVLLGHSLGIPWAPLSSCPSQALQLAGCLSQLHSGLFLYQGLLQALEGISPELGPTLDTLQLDVADFATTIWQQMEELGMAPALQPTQGAMPAFASAFQRRAGGVLVASHLQSFLEVSYRVLRHLAQP
modifications: SPA-PEG 12000 covalently linked to the available PEGylation sites; number and positions not stated
As for B10, the “Specific activity (% of Neupogen®)” value with human G-CSF receptor [1] was 8 % of Neupogen®.

B11: Single-chain G-CSF dimer (ligand)
chain: TPLGPASSLPQSFLLKCLEQVRKIQGDGAALQEKLCATYKLCHPEELVLLGHSLGIPWAPLSSCPSQALQLAGCLSQLHSGLFLYQGLLQALEGISPELGPTLDTLQLDVADFATTIWQQMEELGMAPALQPTQGAMPAFASAFQRRAGGVLVASHLQSFLEVSYRVLRHLAQPTPLGPASSLPQSFLLKCLEQVRKIQGDGAALQEKLCATYKLCHPEELVLLGHSLGIPWAPLSSCPSQALQLAGCLSQLHSGLFLYQGLLQALEGISPELGPTLDTLQLDVADFATTIWQQMEELGMAPALQPTQGAMPAFASAFQRRAGGVLVASHLQSFLEVSYRVLRHLAQP
As to B11, the “Specific activity (% of Neupogen®)” value with human G-CSF receptor [1] is 214 % of Neupogen®.

B12: non-conjugated hG-CSF (Neupogen®) (ligand)
chain: TPLGPASSLPQSFLLKCLEQVRKIQGDGAALQEKLCATYKLCHPEELVLLGHSLGIPWAPLSSCPSQALQLAGCLSQLHSGLFLYQGLLQALEGISPELGPTLDTLQLDVADFATTIWQQMEELGMAPALQPTQGAMPAFASAFQRRAGGVLVASHLQSFLEVSYRVLRHLAQP
B12: the “EC50, luciferase reporter assay in BaF3/hGCSF-R/pfos-lux cells (Primary assay 2)” value in the assay with human G-CSF receptor [2] turned out to be 0.03 nM.
